Patent publication US20100062980A1, “THERAPEUTIC USES OF BETA-ANTAGONISTS” (priority 2006, published 2010)
Entries after “also recorded” stand apart in the source; their conditions may differ.

What was measured:
anesthetized male rats = test: Electrocardiogram monitoring and heart rate determination; type: in vivo, Sprague-Dawley rats; settings: i.t.v., 1 mg/kg, 10 min after administration (FIG. 8)
Text: (§1) Swiss albino male mice (˜20 g) were used for the in vivo toxicity study. Male Sprague-Dawley (SD) rats were used for electrocardiogram (ECG) monitoring (3-4 weeks old, ˜80-100 g) and the Langendorff isolated perfused heart experiments (8 weeks old, ˜250 g). Animals were acquired from the university Laboratory Animal Center (LAC) and were acclimatized to the Animal Holding Unit surroundings for at least 3 days prior to the experiments. Animals were kept under standard conditions with food and water available ad lib. All animal experiments were conducted according to the protocol (776/05a) approved by the Institutional Animal Care and Use Committee (IACUC) of the National University of Singapore.
(§2) The protein was dissolved in 200 μl of 0.9% NaCl (Braun, Malaysia) and administered through the intra-peritoneal (i.p.) route for the in vivo toxicity study in mice. Intra-tail vein (i.t.v.) administration was done in the ECG monitoring study in rats. The various protein doses were dissolved in 200 μl of 0.9% NaCl solution and injected into the tail vein using a 27 G ½ needle (Becton Dickinson, Franklin Lakes, N.J.) held at an angle of about 10° to the tail. The infusion was made very slowly and at a steady rate.
For electrocardiogram (ECG) measurements, Sprague-Dawley rats were anesthetized with an i.p. dose of 7% chloral hydrate (5 ml/kg). […]

[1] = system: Langendorff isolated perfused rat hearts; test: Langendorff isolated perfused heart; settings: 5 μM in KH solution, 10 min
Protocol: Rats were anesthetized with 7% chloral hydrate (5 ml/kg). 2 ml of 50 I.U. heparin (David Bull Laboratories, Warwick, UK) was injected i.p. 15 min prior to sacrificing the animal. The heart was excised rapidly and placed in oxygenated Krebs-Henseleit (KH) solution (in mM/1: NaCl 118.0, KCl 4.5, KH2PO4 1.4, MgSO4 1.2, NaHCO3 25, CaCl2 1.4 and glucose 11; pH 7.4) before the aorta was cannulated on the Langendorff apparatus. Non-recirculating mode of retrograde perfusion with KH solution was carried out at a constant flow (6-7 ml/min) at 37° C. The buffer was continuously bubbled with 95% O2 and 5% CO2. The hearts were allowed to equilibrate for 30 min and in study groups the buffer flow was switched to a second reservoir which contained 5 μM of the protein dissolved in KH solution, plain KH solution was passed for further 15 min in case of control group.
A water-filled latex balloon was attached to a pressure transducer and inserted through the mitral valve into the left ventricle (LV) through an incision in the left atrium. The pressure transducer was connected to a Powerlab (ADInstruments, Castle Hill, NSW, Australia) data recording system. The following indices of cardiac performance were measured and averaged from ten beats for each condition: heart rate (HR, in beats/min) and left ventricle diastolic end pressure (LVDEP, in mmHg), which is an index of contractile activity. […]

[2] = system: extrinsic pathway of blood coagulation (human plasma); test: Anticoagulant activity, prothrombin time; type: biochemical; settings: 50 μM protein per assay, vs control
Protocol: (§3) The anticoagulant activity of the purified protein was tested by two coagulation tests using a BBL fibrometer. Blood plasma was collected from healthy human volunteers.
Prothrombin time—The prothrombin times were measured according to the method of Quick (25). 100 μl of 50 mM Tris-HCl buffer (pH 7.4), 100 μl of plasma and 50 μl of the protein dissolved in the assay buffer were preincubated for 2 min at 37° C. Clotting was initiated by the addition of 150 μl of thromboplastin with calcium reagent (Sigma-Aldrich, St Louis, Mo.).

[3] = system: intrinsic pathway of blood coagulation (human plasma); test: Anticoagulant activity, recalcification time; type: biochemical; settings: 50 μM protein per assay, vs control
Protocol: as §3
Recalcification time—The recalcification times were measured according to the method of Langdell et al. (26). 100 μl of 50 mM Tris-HCl buffer (pH 7.4), 100 μl of plasma and 50 μl of the protein dissolved in the assay buffer were preincubated for 2 min at 37° C. Clotting was initiated by the addition of 50 μl of 50 mM CaCl2.

Swiss albino male mice = type: in vivo; settings: mice
Text: as §1, §2
After purification of the protein from snake venom, i.p. doses of 1 mg/kg, 10 mg/kg and 100 mg/kg were administered to healthy male mice (three animals per group) and the symptoms were observed and recorded. 0.9% NaCl was injected as control. Postmortem examinations were conducted on the animals after their death/sacrifice.

B1: β-cardiotoxin: three-finger toxin protein isolated from Ophiophagus hannah (king cobra) venom, SEQ ID No.3, β-adrenergic receptor blocker (protein)
chain: RKCLNTPLPLIYTTCPIGQDKCVKMTIKKLPSKYDVIRGCIDICPKSSADVEVLCCDTNKCNK
change in heart rate (ECG) (anesthetized male rats): dose-dependent decrease of the heart rate; also recorded: decrease in the heart rate; also recorded: dose-dependent decrease in heart rate | change in contractility (LVDEP) [1]: without any significant change in the contractility; also recorded: without affecting the contractility | change in heart rate [1]: dose-dependent decrease of the heart rate; also recorded: marked reduction in the heart rate | change in clotting time, prothrombin time [2]: does not show any hemolytic or anticoagulant activity; also recorded: did not cause any significant changes in the clotting time | change in clotting time, recalcification time [3]: does not show any hemolytic or anticoagulant activity; also recorded: did not cause any significant changes in the clotting time | postmortem examination (Swiss albino male mice; i.p., 100 mg/kg): did not reveal any hemorrhage or visual damage to internal organs | time to death (Swiss albino male mice; i.p., 100 mg/kg): about 30 min | dose up to which the protein was not lethal (Swiss albino male mice; intraperitoneal): ≤ 10 mg/kg
